From article doi:10.1101/2022.12.15.520641

Target: 6His-σS (His-tagged RpoS) (E. coli) (UniProt P13445)
Test: pull-down

Sequence of UniProt P13445 (P13445 whole entry): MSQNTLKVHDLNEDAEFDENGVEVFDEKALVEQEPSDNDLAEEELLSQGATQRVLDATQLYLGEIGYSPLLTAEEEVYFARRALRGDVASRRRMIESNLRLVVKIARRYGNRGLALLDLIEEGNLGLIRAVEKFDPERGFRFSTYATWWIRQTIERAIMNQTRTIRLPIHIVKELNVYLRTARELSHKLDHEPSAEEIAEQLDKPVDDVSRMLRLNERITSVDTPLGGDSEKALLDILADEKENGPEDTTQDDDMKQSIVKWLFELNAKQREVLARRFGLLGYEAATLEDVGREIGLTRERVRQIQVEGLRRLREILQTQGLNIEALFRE

- fold increase in pull-down efficiency over RssB without Mg2+•beryllofluoride: 5 fold
Substance: RssB bound to Mg2+•beryllofluoride (phosphorylated-like RssB) (from UniProt P0AEV1 1-337) (natural protein)
